The values that follow come from publication PMC9071432.

In this data set the target is sg-Tu-Ts_dCC (Escherichia coli) (UniProt P0A6P1+P0CE48). Nature of the data set: EMSA. The note with it: 10 mM Mg2+; printed >>30; none (in vitro transcript); EMSA: 50 mM Tris-Cl pH 7.4, 10 mM MgCl2, 50 mM NaCl, 10 mM b-ME, 10% glycerol, 37C 10 min, gel at ~25C; pull-down: Tu-GTP preincubated in 50 mM Tris-Cl pH 7.0 ….
Sequence of UniProt P0A6P1 (P0A6P1 whole entry, chain 1 of 2): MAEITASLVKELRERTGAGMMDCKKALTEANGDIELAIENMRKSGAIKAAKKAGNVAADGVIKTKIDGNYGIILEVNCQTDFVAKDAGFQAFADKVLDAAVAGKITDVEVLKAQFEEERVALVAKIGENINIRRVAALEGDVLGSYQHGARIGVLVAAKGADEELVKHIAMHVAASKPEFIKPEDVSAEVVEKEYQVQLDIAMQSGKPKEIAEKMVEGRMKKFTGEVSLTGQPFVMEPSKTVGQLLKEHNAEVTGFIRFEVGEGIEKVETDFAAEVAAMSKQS
Sequence of UniProt P0A6P1 (P0CE48 whole entry, chain 2 of 2): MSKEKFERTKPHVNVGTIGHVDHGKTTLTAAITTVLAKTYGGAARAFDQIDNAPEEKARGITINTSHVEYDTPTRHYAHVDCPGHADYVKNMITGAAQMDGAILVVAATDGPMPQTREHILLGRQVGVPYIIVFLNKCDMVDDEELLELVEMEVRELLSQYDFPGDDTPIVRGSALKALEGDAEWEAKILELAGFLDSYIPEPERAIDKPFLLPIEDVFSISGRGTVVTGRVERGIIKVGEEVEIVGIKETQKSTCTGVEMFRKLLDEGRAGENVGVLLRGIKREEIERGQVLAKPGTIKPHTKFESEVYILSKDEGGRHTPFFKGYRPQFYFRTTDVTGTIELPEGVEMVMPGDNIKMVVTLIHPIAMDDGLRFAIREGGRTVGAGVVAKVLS

Turning to “UGGGGUAUCGCCAAGCGGUAAGGCACCGGAUUCUGAUUCCGGCAUUCCGAGGUUCGAAUCCUCGUACCCCAGCCA [tRNAGln transcript (U1-A72, wt), uncharged]”, the Kd (commonly the free concentration of one partner at which half of the binding sites on the other are occupied at equilibrium, for simple one-to-one binding) was over 30 µM.
